Values of other authors in publication PMC6978450.
pKd: −log10 of the molar value.

What was measured:
IL-13Rα1 (Mus musculus) = IL-13Rα1 (Mus musculus) (UniProt O09030)
IL-13Rα2 (Mus musculus) = IL-13Rα2 (Mus musculus) (UniProt O88786)
UniProt O88786, sequence (O88786 22-334): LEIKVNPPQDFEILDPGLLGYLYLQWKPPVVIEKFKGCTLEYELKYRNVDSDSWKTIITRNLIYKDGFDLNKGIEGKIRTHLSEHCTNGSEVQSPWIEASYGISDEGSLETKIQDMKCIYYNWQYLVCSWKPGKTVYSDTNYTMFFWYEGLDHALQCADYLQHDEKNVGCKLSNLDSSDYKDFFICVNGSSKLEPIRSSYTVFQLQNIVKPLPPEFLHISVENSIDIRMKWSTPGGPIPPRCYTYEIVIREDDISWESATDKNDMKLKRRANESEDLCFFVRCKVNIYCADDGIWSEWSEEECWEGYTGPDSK

UniProt O09030, sequence (O09030 26-340): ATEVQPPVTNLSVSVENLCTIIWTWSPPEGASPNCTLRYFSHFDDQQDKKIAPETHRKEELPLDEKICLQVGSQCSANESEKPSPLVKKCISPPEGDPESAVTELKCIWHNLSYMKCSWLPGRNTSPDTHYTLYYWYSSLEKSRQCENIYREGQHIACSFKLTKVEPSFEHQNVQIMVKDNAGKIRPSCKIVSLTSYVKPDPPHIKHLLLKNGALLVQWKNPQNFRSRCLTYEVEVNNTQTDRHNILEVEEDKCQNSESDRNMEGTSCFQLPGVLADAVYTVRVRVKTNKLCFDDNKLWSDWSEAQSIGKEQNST

pKd (IL-13Rα1 (Mus musculus)): 7.52
pKd (IL-13Rα2 (Mus musculus)): 9.36
Substance: IL-13 (from UniProt P20109)
